Data published in patent publication US20100104564A1 (published 2010).

Molecular target: T1, human FcRn (recombinant soluble receptor, 6XHis, co-expressed with beta2 microglobulin) (human, UniProt P61769 21-119)
T1 construct: purified on nickel; also called huFcRn
Assay: Luminex assay, pH 6
Procedure: FcRn binding by single and multiple substitution variants was also assessed. The fold difference in binding as compared to wild type anti-CD30 (unaltered Fc) was measured in luminex assays.

T1 sequence (chain, as listed by the source limits assumed, chain 1 of 2): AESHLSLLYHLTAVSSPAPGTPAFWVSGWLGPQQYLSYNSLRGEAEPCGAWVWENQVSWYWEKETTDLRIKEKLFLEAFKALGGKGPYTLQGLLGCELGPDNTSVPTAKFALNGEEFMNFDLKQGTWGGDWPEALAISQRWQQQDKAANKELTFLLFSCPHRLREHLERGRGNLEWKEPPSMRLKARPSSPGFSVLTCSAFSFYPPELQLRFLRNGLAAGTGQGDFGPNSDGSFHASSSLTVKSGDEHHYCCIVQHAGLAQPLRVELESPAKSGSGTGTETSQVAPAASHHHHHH
T1 sequence (P61769 21-119 limits assumed, chain 2 of 2): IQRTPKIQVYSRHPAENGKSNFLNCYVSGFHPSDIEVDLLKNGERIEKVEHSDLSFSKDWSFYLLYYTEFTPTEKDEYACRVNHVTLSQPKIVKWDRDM

B1: anti-CD30 antibody (5F11) variant E345W (antibody)
heavy: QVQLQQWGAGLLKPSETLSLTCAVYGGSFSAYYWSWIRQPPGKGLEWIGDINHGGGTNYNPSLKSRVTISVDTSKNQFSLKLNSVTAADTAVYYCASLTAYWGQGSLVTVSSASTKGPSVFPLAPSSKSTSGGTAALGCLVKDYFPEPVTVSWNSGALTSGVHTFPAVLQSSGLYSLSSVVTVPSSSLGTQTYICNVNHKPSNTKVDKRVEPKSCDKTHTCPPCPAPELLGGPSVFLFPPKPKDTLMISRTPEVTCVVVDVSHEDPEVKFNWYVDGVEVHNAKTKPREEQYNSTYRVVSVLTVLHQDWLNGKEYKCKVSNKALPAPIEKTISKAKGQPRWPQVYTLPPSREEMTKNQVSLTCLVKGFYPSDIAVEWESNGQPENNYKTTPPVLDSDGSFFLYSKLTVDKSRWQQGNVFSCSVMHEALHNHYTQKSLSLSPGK
light: DIQMTQSPTSLSASVGDRVTITCRASQGISSWLTWYQQKPEKAPKSLIYAASSLQSGVPSRFSGSGSGTDFTLTISSLQPEDFATYYCQQYDSYPITFGQGTRLEIKRTVAAPSVFIFPPSDEQLKSGTASVVCLLNNFYPREAKVQWKVDNALQSGNSQESVTEQDSKDSTYSLSSTLTLSKADYEKHKVYACEVTHQGLSSPVTKSFNRGEC
notes: Single Fc substitution in the 5F11 antibody; EU numbering, not the numbering of the UniProt entry
  FcRn binding at pH 6 (fold difference vs wild type anti-CD30): 1.3 fold vs wild type

B2: anti-CD30 antibody (5F11) variant G446W (antibody)
heavy: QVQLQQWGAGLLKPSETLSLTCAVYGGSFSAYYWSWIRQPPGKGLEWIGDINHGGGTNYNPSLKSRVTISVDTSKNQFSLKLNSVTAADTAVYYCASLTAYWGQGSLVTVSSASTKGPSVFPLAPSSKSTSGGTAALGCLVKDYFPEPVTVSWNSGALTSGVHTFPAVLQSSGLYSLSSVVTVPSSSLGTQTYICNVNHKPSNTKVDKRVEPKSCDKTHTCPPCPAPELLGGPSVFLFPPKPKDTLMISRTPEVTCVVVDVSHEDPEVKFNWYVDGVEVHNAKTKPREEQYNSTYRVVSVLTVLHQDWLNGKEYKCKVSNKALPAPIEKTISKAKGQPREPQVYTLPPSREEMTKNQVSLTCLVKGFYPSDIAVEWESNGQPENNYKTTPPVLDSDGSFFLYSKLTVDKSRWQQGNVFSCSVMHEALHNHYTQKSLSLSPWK
light: DIQMTQSPTSLSASVGDRVTITCRASQGISSWLTWYQQKPEKAPKSLIYAASSLQSGVPSRFSGSGSGTDFTLTISSLQPEDFATYYCQQYDSYPITFGQGTRLEIKRTVAAPSVFIFPPSDEQLKSGTASVVCLLNNFYPREAKVQWKVDNALQSGNSQESVTEQDSKDSTYSLSSTLTLSKADYEKHKVYACEVTHQGLSSPVTKSFNRGEC
notes: Single Fc substitution in the 5F11 antibody; EU numbering, not the numbering of the UniProt entry; copies: 2 + 2
  FcRn binding at pH 6 (fold difference vs wild type anti-CD30): 1.1 fold vs wild type

B3: anti-CD30 antibody (5F11) variant F404W (antibody)
heavy: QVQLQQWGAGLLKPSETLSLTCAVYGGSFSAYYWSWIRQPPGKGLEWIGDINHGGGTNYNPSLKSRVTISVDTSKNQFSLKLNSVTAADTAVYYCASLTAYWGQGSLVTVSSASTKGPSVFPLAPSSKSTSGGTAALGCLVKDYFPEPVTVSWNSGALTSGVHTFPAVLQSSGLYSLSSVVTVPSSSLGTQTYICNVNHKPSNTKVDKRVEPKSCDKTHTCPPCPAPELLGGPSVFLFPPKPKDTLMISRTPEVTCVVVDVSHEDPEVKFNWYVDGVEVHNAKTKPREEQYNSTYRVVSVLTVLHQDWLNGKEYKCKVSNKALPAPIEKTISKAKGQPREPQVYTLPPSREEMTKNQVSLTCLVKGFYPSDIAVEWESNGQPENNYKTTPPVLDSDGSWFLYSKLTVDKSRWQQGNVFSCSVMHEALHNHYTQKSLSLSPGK
light: DIQMTQSPTSLSASVGDRVTITCRASQGISSWLTWYQQKPEKAPKSLIYAASSLQSGVPSRFSGSGSGTDFTLTISSLQPEDFATYYCQQYDSYPITFGQGTRLEIKRTVAAPSVFIFPPSDEQLKSGTASVVCLLNNFYPREAKVQWKVDNALQSGNSQESVTEQDSKDSTYSLSSTLTLSKADYEKHKVYACEVTHQGLSSPVTKSFNRGEC
notes: as for B2
  FcRn binding at pH 6 (fold difference vs wild type anti-CD30): 1.7 fold vs wild type

B4: anti-CD30 antibody (5F11) variant D376T (antibody)
heavy: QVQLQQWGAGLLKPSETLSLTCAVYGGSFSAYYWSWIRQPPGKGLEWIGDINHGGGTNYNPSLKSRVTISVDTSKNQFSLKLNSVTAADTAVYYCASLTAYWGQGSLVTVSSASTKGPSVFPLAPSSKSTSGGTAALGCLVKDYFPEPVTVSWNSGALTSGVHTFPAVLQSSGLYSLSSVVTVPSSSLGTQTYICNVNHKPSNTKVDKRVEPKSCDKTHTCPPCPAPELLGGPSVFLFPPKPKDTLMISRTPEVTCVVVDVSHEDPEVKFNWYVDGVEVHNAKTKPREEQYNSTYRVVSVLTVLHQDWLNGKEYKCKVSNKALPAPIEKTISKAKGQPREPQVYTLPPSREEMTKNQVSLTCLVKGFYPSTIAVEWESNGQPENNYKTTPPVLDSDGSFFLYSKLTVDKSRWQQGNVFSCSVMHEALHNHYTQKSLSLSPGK
light: DIQMTQSPTSLSASVGDRVTITCRASQGISSWLTWYQQKPEKAPKSLIYAASSLQSGVPSRFSGSGSGTDFTLTISSLQPEDFATYYCQQYDSYPITFGQGTRLEIKRTVAAPSVFIFPPSDEQLKSGTASVVCLLNNFYPREAKVQWKVDNALQSGNSQESVTEQDSKDSTYSLSSTLTLSKADYEKHKVYACEVTHQGLSSPVTKSFNRGEC
notes: as for B2
  FcRn binding at pH 6 (fold difference vs wild type anti-CD30): 1.6 fold vs wild type

B5: anti-CD30 antibody (5F11) variant A378P (antibody)
heavy: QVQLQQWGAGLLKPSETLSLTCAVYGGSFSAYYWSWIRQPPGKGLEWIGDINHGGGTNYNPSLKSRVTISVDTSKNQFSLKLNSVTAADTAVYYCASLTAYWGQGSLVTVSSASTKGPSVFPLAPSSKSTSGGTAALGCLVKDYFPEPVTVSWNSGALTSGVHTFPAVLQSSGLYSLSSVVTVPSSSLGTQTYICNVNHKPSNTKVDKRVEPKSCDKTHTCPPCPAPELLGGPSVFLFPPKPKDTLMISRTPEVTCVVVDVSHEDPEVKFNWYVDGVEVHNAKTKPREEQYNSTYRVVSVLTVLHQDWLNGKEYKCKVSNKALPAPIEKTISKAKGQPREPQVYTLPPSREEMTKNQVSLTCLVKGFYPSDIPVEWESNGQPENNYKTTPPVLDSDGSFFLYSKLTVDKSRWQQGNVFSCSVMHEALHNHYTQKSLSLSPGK
light: DIQMTQSPTSLSASVGDRVTITCRASQGISSWLTWYQQKPEKAPKSLIYAASSLQSGVPSRFSGSGSGTDFTLTISSLQPEDFATYYCQQYDSYPITFGQGTRLEIKRTVAAPSVFIFPPSDEQLKSGTASVVCLLNNFYPREAKVQWKVDNALQSGNSQESVTEQDSKDSTYSLSSTLTLSKADYEKHKVYACEVTHQGLSSPVTKSFNRGEC
notes: as for B2
  FcRn binding at pH 6 (fold difference vs wild type anti-CD30): 0.6 fold vs wild type

B6: anti-CD30 antibody (5F11) variant S426W (antibody)
heavy: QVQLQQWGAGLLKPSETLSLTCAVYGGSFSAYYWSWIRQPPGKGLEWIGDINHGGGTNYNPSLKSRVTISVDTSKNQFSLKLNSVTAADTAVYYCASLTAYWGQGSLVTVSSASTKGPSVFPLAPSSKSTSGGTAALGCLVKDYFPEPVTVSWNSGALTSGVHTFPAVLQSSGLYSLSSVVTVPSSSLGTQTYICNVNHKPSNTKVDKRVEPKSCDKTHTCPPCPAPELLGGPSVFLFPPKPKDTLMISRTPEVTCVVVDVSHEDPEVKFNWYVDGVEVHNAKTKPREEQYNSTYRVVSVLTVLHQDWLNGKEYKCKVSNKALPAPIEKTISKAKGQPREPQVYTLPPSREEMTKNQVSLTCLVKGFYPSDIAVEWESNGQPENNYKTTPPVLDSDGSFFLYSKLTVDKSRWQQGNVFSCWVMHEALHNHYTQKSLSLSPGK
light: DIQMTQSPTSLSASVGDRVTITCRASQGISSWLTWYQQKPEKAPKSLIYAASSLQSGVPSRFSGSGSGTDFTLTISSLQPEDFATYYCQQYDSYPITFGQGTRLEIKRTVAAPSVFIFPPSDEQLKSGTASVVCLLNNFYPREAKVQWKVDNALQSGNSQESVTEQDSKDSTYSLSSTLTLSKADYEKHKVYACEVTHQGLSSPVTKSFNRGEC
notes: as for B2
  FcRn binding at pH 6 (fold difference vs wild type anti-CD30): 0.6 fold vs wild type

B7: anti-CD30 antibody (5F11) variant S254W (antibody)
heavy: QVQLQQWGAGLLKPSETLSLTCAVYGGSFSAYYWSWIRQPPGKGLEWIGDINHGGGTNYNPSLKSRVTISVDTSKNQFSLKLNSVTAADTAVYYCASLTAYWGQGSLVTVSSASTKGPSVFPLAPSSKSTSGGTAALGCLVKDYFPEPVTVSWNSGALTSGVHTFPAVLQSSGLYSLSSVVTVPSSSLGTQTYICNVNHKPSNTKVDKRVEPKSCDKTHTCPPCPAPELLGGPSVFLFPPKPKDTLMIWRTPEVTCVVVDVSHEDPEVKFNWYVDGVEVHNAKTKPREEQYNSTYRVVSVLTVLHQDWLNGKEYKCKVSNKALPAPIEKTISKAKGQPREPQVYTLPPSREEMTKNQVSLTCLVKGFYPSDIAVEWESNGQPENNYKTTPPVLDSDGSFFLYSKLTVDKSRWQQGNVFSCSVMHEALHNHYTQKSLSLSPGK
light: DIQMTQSPTSLSASVGDRVTITCRASQGISSWLTWYQQKPEKAPKSLIYAASSLQSGVPSRFSGSGSGTDFTLTISSLQPEDFATYYCQQYDSYPITFGQGTRLEIKRTVAAPSVFIFPPSDEQLKSGTASVVCLLNNFYPREAKVQWKVDNALQSGNSQESVTEQDSKDSTYSLSSTLTLSKADYEKHKVYACEVTHQGLSSPVTKSFNRGEC
notes: as for B2
  FcRn binding at pH 6 (fold difference vs wild type anti-CD30): 0.2 fold vs wild type

B8: anti-CD30 antibody (5F11) variant S354R (antibody)
heavy: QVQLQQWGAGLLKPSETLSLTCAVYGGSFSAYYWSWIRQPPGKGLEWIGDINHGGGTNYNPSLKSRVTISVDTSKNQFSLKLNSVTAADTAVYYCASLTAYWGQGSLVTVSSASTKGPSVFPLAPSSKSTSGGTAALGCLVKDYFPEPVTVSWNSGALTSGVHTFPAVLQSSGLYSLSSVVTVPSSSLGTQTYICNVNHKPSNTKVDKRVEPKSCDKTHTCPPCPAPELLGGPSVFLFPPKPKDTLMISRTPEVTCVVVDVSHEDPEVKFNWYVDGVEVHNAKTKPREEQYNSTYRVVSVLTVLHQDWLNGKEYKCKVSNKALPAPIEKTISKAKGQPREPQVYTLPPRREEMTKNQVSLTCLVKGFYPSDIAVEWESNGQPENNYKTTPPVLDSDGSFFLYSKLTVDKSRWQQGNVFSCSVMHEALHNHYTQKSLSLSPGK
light: DIQMTQSPTSLSASVGDRVTITCRASQGISSWLTWYQQKPEKAPKSLIYAASSLQSGVPSRFSGSGSGTDFTLTISSLQPEDFATYYCQQYDSYPITFGQGTRLEIKRTVAAPSVFIFPPSDEQLKSGTASVVCLLNNFYPREAKVQWKVDNALQSGNSQESVTEQDSKDSTYSLSSTLTLSKADYEKHKVYACEVTHQGLSSPVTKSFNRGEC
notes: as for B2
  FcRn binding at pH 6 (fold difference vs wild type anti-CD30): 1.3 fold vs wild type

B9: anti-CD30 antibody (5F11) variant E356K (antibody)
heavy: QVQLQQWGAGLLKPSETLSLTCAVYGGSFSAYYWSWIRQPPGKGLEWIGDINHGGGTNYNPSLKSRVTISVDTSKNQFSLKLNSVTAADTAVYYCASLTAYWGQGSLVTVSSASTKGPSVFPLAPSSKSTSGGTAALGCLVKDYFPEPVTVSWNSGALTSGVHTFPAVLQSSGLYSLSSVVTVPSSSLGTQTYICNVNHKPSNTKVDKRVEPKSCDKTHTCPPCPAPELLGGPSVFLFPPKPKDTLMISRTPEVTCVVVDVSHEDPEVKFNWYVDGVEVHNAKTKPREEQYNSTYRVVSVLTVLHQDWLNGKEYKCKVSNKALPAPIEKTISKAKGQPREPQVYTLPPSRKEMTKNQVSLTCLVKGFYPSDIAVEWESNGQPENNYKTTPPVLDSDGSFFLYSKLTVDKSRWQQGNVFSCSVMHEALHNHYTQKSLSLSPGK
light: DIQMTQSPTSLSASVGDRVTITCRASQGISSWLTWYQQKPEKAPKSLIYAASSLQSGVPSRFSGSGSGTDFTLTISSLQPEDFATYYCQQYDSYPITFGQGTRLEIKRTVAAPSVFIFPPSDEQLKSGTASVVCLLNNFYPREAKVQWKVDNALQSGNSQESVTEQDSKDSTYSLSSTLTLSKADYEKHKVYACEVTHQGLSSPVTKSFNRGEC
notes: Single Fc substitution in the 5F11 antibody; EU numbering; copies: 2 + 2
  FcRn binding at pH 6 (fold difference vs wild type anti-CD30): 1.4 fold vs wild type

B10: anti-CD30 antibody (5F11) variant P247I (antibody)
heavy: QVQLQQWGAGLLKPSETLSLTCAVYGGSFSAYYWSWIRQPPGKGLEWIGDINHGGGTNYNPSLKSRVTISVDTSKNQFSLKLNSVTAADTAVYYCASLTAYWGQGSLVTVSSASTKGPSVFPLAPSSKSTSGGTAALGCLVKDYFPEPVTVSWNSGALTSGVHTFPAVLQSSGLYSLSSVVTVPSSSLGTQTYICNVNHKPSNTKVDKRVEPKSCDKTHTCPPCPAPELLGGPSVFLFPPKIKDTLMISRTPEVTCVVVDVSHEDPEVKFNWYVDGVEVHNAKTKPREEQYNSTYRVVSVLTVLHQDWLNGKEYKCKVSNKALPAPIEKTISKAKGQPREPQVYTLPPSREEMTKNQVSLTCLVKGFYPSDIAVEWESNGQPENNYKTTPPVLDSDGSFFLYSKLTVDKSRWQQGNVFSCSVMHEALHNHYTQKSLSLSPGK
light: DIQMTQSPTSLSASVGDRVTITCRASQGISSWLTWYQQKPEKAPKSLIYAASSLQSGVPSRFSGSGSGTDFTLTISSLQPEDFATYYCQQYDSYPITFGQGTRLEIKRTVAAPSVFIFPPSDEQLKSGTASVVCLLNNFYPREAKVQWKVDNALQSGNSQESVTEQDSKDSTYSLSSTLTLSKADYEKHKVYACEVTHQGLSSPVTKSFNRGEC
notes: as for B2
  FcRn binding at pH 6 (fold difference vs wild type anti-CD30): 1.1 fold vs wild type

B11: anti-CD30 antibody (5F11) variant P396I (antibody)
heavy: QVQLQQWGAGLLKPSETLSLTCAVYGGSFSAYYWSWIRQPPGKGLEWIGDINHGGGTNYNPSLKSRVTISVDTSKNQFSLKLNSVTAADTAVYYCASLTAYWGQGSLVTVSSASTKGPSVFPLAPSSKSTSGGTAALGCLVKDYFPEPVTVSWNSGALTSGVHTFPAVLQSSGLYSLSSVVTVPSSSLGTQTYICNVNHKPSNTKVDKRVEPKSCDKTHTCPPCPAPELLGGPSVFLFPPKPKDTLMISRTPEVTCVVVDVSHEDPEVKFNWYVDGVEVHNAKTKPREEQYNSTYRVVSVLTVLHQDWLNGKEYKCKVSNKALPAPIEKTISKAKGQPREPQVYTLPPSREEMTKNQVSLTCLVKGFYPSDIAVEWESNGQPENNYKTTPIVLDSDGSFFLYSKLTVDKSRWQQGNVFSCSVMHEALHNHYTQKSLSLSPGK
light: DIQMTQSPTSLSASVGDRVTITCRASQGISSWLTWYQQKPEKAPKSLIYAASSLQSGVPSRFSGSGSGTDFTLTISSLQPEDFATYYCQQYDSYPITFGQGTRLEIKRTVAAPSVFIFPPSDEQLKSGTASVVCLLNNFYPREAKVQWKVDNALQSGNSQESVTEQDSKDSTYSLSSTLTLSKADYEKHKVYACEVTHQGLSSPVTKSFNRGEC
notes: as for B2
  FcRn binding at pH 6 (fold difference vs wild type anti-CD30): 1.4 fold vs wild type
